Laboratory results reported in patent publication US20240132575A1 (MEMO THERAPEUTICS, published 2024).
Changes are numbered by the printed parent chain. Like-named read-outs stand apart in the source and are kept apart here.

T1: BKV serotype Ia VP1 on BK pseudovirus (VP1-Ia) (BK virus serotype Ia, UniProt P03088 1-362)
T1 chain: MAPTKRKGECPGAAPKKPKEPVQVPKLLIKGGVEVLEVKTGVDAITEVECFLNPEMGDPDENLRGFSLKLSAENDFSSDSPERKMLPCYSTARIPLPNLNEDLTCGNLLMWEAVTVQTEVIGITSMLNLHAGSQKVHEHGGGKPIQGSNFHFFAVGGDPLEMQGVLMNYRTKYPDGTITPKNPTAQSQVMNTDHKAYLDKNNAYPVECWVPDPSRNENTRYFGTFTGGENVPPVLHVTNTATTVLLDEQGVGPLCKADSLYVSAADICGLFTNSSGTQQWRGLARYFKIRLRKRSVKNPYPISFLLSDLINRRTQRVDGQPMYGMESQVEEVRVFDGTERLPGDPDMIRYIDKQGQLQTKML

T2: BKV serotype IV VP1 on BK pseudovirus (VP1-IVc) (BK virus serotype IV, UniProt P14996 1-362)
T2 chain: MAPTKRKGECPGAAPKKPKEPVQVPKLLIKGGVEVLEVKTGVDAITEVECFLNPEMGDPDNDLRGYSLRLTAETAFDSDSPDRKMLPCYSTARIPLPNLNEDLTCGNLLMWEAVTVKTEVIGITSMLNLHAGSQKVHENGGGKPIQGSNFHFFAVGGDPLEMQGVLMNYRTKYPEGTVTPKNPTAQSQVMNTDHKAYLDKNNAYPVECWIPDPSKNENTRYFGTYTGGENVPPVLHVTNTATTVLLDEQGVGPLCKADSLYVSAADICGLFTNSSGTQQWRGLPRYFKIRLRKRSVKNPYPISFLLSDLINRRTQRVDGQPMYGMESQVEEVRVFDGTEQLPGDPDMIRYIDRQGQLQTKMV

T3: BKV serotype II VP1 on BK pseudovirus (VP1-II) (BK virus serotype II, UniProt P14996 1-362)
T3 chain: T2 chain with N61D, D62N, R69K, T74N, R83K, I145V, E175Q, V178I, K215R, P284A

T4: BKV serotype Ib VP1 on BK pseudovirus (VP1-Ib) (BK virus serotype Ib, UniProt P03088 1-362)
T4 chain: T1 chain with V42L, E82D, D175E, V210I

T5: BKV serotype III VP1 on BK pseudovirus (VP1-III) (BK virus serotype III, UniProt P14996 1-362)
T5 sequence: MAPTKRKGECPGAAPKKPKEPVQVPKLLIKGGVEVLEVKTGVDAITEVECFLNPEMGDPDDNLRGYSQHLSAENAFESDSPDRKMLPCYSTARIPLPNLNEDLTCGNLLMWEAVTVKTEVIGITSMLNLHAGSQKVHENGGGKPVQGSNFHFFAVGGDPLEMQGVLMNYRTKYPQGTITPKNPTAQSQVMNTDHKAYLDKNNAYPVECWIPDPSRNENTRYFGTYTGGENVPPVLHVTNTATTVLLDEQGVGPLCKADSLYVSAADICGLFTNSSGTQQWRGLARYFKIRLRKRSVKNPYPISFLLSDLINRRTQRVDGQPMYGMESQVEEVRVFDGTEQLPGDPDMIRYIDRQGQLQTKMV

T6: BKV serotype III VP1 pentamer (VP1-III) (BK virus serotype III, UniProt P14996 31-300)
T6 construct: also called BKV-VP1 serotype III
T6 sequence: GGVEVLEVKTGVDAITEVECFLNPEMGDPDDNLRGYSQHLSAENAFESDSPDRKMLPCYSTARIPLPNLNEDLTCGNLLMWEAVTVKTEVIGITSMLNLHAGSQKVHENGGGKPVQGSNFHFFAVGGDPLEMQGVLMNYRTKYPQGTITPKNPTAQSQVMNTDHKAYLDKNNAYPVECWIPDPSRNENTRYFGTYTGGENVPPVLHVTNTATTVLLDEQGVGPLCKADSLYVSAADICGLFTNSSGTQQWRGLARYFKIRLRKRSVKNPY

T7: BKV serotype I VP1 pentamer (VP1-I) (BK virus serotype I, UniProt P03088 31-300)
T7 construct: also called BKV-VP1 serotype I
T7 chain: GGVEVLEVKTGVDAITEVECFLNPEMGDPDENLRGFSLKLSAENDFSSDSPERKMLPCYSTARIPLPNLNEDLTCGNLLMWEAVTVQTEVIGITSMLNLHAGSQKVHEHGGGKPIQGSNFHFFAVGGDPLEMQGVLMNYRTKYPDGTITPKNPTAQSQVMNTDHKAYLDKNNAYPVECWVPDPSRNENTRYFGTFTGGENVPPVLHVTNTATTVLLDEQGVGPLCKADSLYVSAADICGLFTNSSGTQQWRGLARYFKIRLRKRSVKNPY

T8: BKV serotype II VP1 pentamer (VP1-II) (BK virus serotype II, UniProt P14996 31-300)
T8 construct: VP1 pentamer construct; also called BKV-VP1 serotype II
T8 chain: T6 sequence with Q38L, H39K, S41T, E47D, R53K

T9: BKV serotype IV VP1 pentamer (VP1-IV) (BK virus serotype IV, UniProt P14996 31-300)
T9 construct: also called BKV-VP1 serotype IV
T9 chain: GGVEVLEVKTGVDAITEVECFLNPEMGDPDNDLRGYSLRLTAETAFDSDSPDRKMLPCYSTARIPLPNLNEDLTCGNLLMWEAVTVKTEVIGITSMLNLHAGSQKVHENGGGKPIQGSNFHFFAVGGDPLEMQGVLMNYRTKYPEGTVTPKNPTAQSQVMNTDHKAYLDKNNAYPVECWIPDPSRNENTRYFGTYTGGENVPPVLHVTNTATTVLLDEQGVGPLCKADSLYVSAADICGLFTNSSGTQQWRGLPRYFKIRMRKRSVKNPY

B1: comparative antibody P8D11 (WO 2017/046676) (antibody, human IgG1, lambda, V domains shown)
VH: QVQLVESGGTLVQPGGSLRLSCAASGFTFNNYWMTWVRQAPGKGLEWVANIKKDGSEKYYVDSVRGRFTISRDNAKNSLFLQMNSLRPEDTAVYFCATVRSGRYFALDDWGQGTLVTVSS
VL: QSVLTQPPSVSVAPGKTARITCGGDNIGSRPVHWYQQKPGQAPILVVYDDSNRPSGIPERFSGSNSGNTATLTISRVEAGDEADYYCQVWSSSTDHPFGGGTKVTVLG
notes: also called BM2
B2: antibody 319C07 (antibody, human IgG1, kappa, V domains shown)
VH: QVQLQQWGAGLLKPSETLSLTCAVYRGSFSAYYWTWFRQPPGKGLEWIGEINHRGYTNYNPSLRGRVSISVDTSKKQFSLKLRSVNAADTAVYYCATLRSTSGWHDYFDYWGQGTLVTVSS
VL: EIVLTQSPGTLSLSPGERATLSCRASQSVSSSYLAWYQQTPGQAPRLLIYGASSRATGIPDRFSGSGSGTDFTLTISRLEPEDFVVYFCLQYGSSPLTFGPGTKVDIKR
notes: also called 319C7
B3: antibody 336F07 (antibody, human IgG1, kappa, V domains shown)
VH: EEPLLESGGGLVQPGGSLRLSCAASGFTFRLYAMNWVRQAPGKGLEWVSLISGSGTATYYADSVTGRFSISRDNYKNRVYLQMDSLRADDTATYYCAKTYPTWGGVVIGAIDVWGQGTTVTVSS
VL: DIQMTQSPSTLSASVGDRVTITCRASQSIQRWLAWHQQKPGRAPKVLIHDASTLESGVPSRFSGSGSGTEFTLTISSLQPDDFATYYCQQYNGHASTFGPGTKVDIKR
notes: also called 336FC07

Assays:
[1] = target: T10, JCV VP1 pentamer (JC virus, UniProt P03089 23-292); experiment: ELISA on coated JCV-VP1 pentamer
T10 construct: also called JC-VP1; VP1 of the JC virus
T10 sequence (P03089 23-292 limits assumed): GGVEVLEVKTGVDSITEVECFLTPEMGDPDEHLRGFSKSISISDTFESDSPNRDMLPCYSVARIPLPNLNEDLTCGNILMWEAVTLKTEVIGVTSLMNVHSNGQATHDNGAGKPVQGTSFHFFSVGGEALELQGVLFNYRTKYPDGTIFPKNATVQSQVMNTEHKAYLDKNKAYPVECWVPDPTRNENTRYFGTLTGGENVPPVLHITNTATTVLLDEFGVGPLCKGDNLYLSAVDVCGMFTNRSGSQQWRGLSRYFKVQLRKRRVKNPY

[2] = target: T1, BKV serotype Ia VP1 on BK pseudovirus …; experiment: cell-based or functional assay
[3] = target: T2, BKV serotype IV VP1 on BK pseudovirus …; experiment: cell-based or functional assay
[4] = target: T3, BKV serotype II VP1 on BK pseudovirus …; experiment: cell-based or functional assay
[5] = target: T4, BKV serotype Ib VP1 on BK pseudovirus …; experiment: cell-based or functional assay
[6] = target: T5, BKV serotype III VP1 on BK pseudovirus …; experiment: cell-based or functional assay
[7] = target: T1, BKV serotype Ia VP1 on BK pseudovirus …; experiment: cell-based or functional assay
[8] = target: T2, BKV serotype IV VP1 on BK pseudovirus …; experiment: cell-based or functional assay
[9] = target: T3, BKV serotype II VP1 on BK pseudovirus …; experiment: cell-based or functional assay
[10] = target: T4, BKV serotype Ib VP1 on BK pseudovirus …; experiment: cell-based or functional assay
[11] = target: T5, BKV serotype III VP1 on BK pseudovirus …; experiment: cell-based or functional assay; remark: listed apart in the source
[12] = target: T6, BKV serotype III VP1 pentamer (VP1-III); experiment: ELISA, VP1 pentamer coated, IgG titrated (EC50E)
Protocol: (§1) The binding of anti-BK virus antibodies to BKV-VP1 pentamers was analyzed by ELISA. […] Antibodies were serially diluted in PBS with 0.5% skim milk powder and added to the antigen-coated plates for 1.5 h. […] Plates were washed three times with PBS containing 0.05% Tween 20. The reaction was developed using 30 μl/well TMB liquid substrate (Sigma-Aldrich, #T0440) and stopped with 15 μl/well H₂SO₄. […] Data were fitted and apparent EC50 ELISA values (EC50E) were determined by three-parameter analysis in GraphPad Prism (GraphPad Software).

[13] = target: T7, BKV serotype I VP1 pentamer (VP1-I); experiment: ELISA, VP1 pentamer coated, IgG titrated (EC50E)
Protocol: as §1

[14] = target: T8, BKV serotype II VP1 pentamer (VP1-II); experiment: ELISA, VP1 pentamer coated, IgG titrated (EC50E)
Protocol: as §1

[15] = target: T6, BKV serotype III VP1 pentamer (VP1-III); experiment: ELISA, VP1 pentamer coated, IgG titrated (EC50E); remark: listed apart in the source
Protocol: as §1

[16] = target: T8, BKV serotype II VP1 pentamer (VP1-II); experiment: ELISA, VP1 pentamer coated, IgG titrated (EC50E)
Protocol: as §1

[17] = target: T9, BKV serotype IV VP1 pentamer (VP1-IV); experiment: ELISA, VP1 pentamer coated, IgG titrated (EC50E)
Protocol: as §1

| Binder | binding result [1] | IC50 (nM), neutralization of BK-Pseudovirus (NanoLuc luciferase, 293TT cells) [2] [nM] | IC50 (nM), neutralization of BK-Pseudovirus (NanoLuc luciferase, 293TT cells) [3] [nM] | IC50 (nM), neutralization of BK-Pseudovirus (NanoLuc luciferase, 293TT cells) [4] [nM] | IC50 (nM), neutralization of BK-Pseudovirus (NanoLuc luciferase, 293TT cells) [5] [nM] | IC50 (nM), neutralization of BK-Pseudovirus (NanoLuc luciferase, 293TT cells) [6] [nM] | IC50 (nM), neutralization of BK-Pseudovirus (NanoLuc luciferase, 293TT cells) [7] [nM] | IC50 (nM), neutralization of BK-Pseudovirus (NanoLuc luciferase, 293TT cells) [8] [nM] | IC50 (nM), neutralization of BK-Pseudovirus (NanoLuc luciferase, 293TT cells) [9] [nM] | IC50 (nM), neutralization of BK-Pseudovirus (NanoLuc luciferase, 293TT cells) [10] [nM] | IC50 (nM), neutralization of BK-Pseudovirus (NanoLuc luciferase, 293TT cells) [11] [nM] | EC50 [12] [nM] | EC50 [13] [nM] | EC50 [14] [nM] | EC50 [15] [nM] | EC50 [16] [nM] | EC50 [17] [nM] |
| --- | --- | --- | --- | --- | --- | --- | --- | --- | --- | --- | --- | --- | --- | --- | --- | --- | --- |
| B1 | binds | 0.391 | 2.91 | 0.565 | 0.392 | 0.176 | 0.391 | 2.91 | 0.565 | 0.392 | 0.176 | – | – | – | – | – | – |
| B2 | no binding | – | – | – | – | – | 0.007 | 0.032 | 0.01 | 0.007 | 0.058 | 0.06 | 0.05 | 0.06 | – | – | – |
| B3 | no binding | 0.094 | 0.018 | 0.02 | 0.103 | 0.019 | – | – | – | – | – | – | – | – | 0.02 | 0.03 | 0.03 |
